The values that follow come from PMC6239910 (Molecular cell, 2018).

The target of assay [1] is T1, Ube2D3(C85S) (human, UniProt P61077 1-147, C85S). Description: NMR titration.
The target of assay [2] is T1, Ube2D3(C85S). The assay can be described thus: NMR titration. The source holds these as a separate data set.
A further assay deals with Ube2D1 (human, UniProt P51668 1-147). Description: ITC. In general terms: In ITC the heat of successive injections is recorded.

Like-named read-outs stand apart in the source and are kept apart here.

Chain of Ube2D1 (P51668 whole entry): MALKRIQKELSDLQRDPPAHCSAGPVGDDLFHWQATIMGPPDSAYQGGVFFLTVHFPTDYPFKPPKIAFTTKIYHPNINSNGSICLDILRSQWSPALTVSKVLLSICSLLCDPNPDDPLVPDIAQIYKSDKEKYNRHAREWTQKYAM
T1 sequence (P61077 whole entry C85S): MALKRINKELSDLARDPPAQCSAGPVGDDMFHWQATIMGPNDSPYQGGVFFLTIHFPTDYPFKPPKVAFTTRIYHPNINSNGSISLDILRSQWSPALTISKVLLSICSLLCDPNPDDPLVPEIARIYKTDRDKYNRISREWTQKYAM

B1: UHRF2-UBL (residues 1–81) (domain or fragment, UniProt Q96PU4 1-81, looked up)
chain: MWIQVRTIDGSKTCTIEDVSRKATIEELRERVWALFDVRPECQRLFYRGKQLENGYTLFDYDVGLNDIIQLLVRPDPDHLP
On to B1, for which binding in the assay with Ube2D3(C85S) [1] was characterised by a dissociation constant (Kd) of 215 µM.

B2: UHRF1-UBL (residues 1–76) (domain or fragment, human, UniProt Q96T88 1-76, looked up)
chain: MWIQVRTMDGRQTHTVDSLSRLTKVEELRRKIQELFHVEPGLQRLFYRGKQMEDGHTLFDYEVRLNDTIQLLVRQS
B2 had a Kd with Ube2D3(C85S) [2] of 15 µM.

B3: UHRF1-UBL K50R (domain or fragment, human, UniProt Q96T88 1-76, looked up)
chain: MWIQVRTMDGRQTHTVDSLSRLTKVEELRRKIQELFHVEPGLQRLFYRGRQMEDGHTLFDYEVRLNDTIQLLVRQS
As for B3, in the assay with Ube2D1, the binding result is on record as “binds”.

B4: UHRF1-UBL W2V (domain or fragment, human, UniProt Q96T88 1-76, looked up)
chain: MVIQVRTMDGRQTHTVDSLSRLTKVEELRRKIQELFHVEPGLQRLFYRGKQMEDGHTLFDYEVRLNDTIQLLVRQS
In the case of B4, the binding result with Ube2D1 is “binds”.

B5: UHRF1-UBL F59V (domain or fragment, human, UniProt Q96T88 1-76, looked up)
chain: MWIQVRTMDGRQTHTVDSLSRLTKVEELRRKIQELFHVEPGLQRLFYRGKQMEDGHTLVDYEVRLNDTIQLLVRQS
As for B5, the binding result in the assay with Ube2D1 was “binds”.

B6: UHRF1-UBL L65A (domain or fragment, human, UniProt Q96T88 1-76, looked up)
chain: MWIQVRTMDGRQTHTVDSLSRLTKVEELRRKIQELFHVEPGLQRLFYRGKQMEDGHTLFDYEVRANDTIQLLVRQS
With B6, the binding result in the assay with Ube2D1 is on record as “binds”.

For orientation: Kd means a measure of binding affinity in units of concentration.
